B1: A16 (antibody, V domains shown)
VH: DVQLQESGPGLVKPSQSLSLTCSVTGYSITSGYYWNWIRQFPGNKLEWMGYISYDGSNNYNPSLKNRISITRDTSKNQFFLKLNSVTTEDTATYYCARFHYGSRPRYWYFDVWGTGTTVTVSS
VL: DIQMTQTTSSLSASLGDRVTISCSASQGIRNYLNWYQQKPDGTVKLLIYYTSSLHSGVPSRFSGSGSGTDYSLTISNLEPEDIATYYCQQYSKLPWTFGGGTKLEIK
B2: B02 (antibody, V domains shown)
VH: QVQLQQPGAELVKPGASVKVSCKASGYTFTSYWMHWVKQRPGQGLEWIGRIHPSDSDTNYNQKFKGKATLTVDKSSSTAYMQLSSLTSEDSAVYYCAMDWDVDYWGQGTTLTVSS
VL: QIVLTQSPALMSASPGEKVTMTCSASSSVSYMYWYQQKPRSSPKPWIYLTSNLASGVPARFSGSGSGTSYSLTISSMEAEDAATYYCQQWSSNPFTFGSGTKLEIK
B3: B42 (antibody, V domains shown)
VH: B2 VH with G66D, Y95F, A97V, M98I, W100H, D101Y, V102F
VL: DIVMSQSPSSLAVSAGEKVTMSCKSSQSLLNSRTRKNYLAWYQQKPGQSPKLLIYWASTRESGVPDRFTGSGSGTDFTLTISSVQAEDLAVYYCKQSYNLYTFGGGTKLEIK
B4: B05 (antibody, V domains shown)
VH: QVQLKQSGAELVRPGASVKLSCKASGYTFTDYYINWVKQRPGQGLEWIARIYPGSGNPYYNEKFKGKATLTAEKSSSTAYMQLSSLTSEDSAVYFCARRGTLLYAFAYWGQGTLVTVSA
VL: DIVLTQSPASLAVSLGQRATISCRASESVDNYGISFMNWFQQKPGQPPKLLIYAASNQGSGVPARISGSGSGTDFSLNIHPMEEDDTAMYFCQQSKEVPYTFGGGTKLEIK
B5: B04 (antibody, V domains shown)
VH: B4 VH with N35T, Y52C, P58T, Y59F, K65M
VL: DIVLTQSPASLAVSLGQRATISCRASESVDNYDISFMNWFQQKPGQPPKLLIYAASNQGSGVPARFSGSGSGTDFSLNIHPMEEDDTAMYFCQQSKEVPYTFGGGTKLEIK
B6: A21 (antibody, V domains shown)
VH: QVQLQQSGAELVKPGASVKISCKASGYSFSDYWMNWVKQRPGKGLEWIGQIFPGDGDTNYNGKFKGKAALTADKSSSTAYMQLSSLTSEDSAVYFCARRELNYFDYWGQGTTLTVSS
VL: QIVLTQSPAIMSASPGEKVTMTCSASSSVSYMFWYQQKPGSSPRLLIYDTSNLASGVPVRFSGSGSGTSYSLTVSRMEAEDAATYYCQQWSSYPLTFGSGTKLEIK
B7: B33 (antibody, V domains shown)
VH: EVQLQQSGPELVKPGTSVKISCKASGYSFTGYYMNWVKQSPEKSLEWIGEINPSTGGTTYNQKFKAKATLTVDKSSSTAYMQLKSLTSEDSAVYYCARADYWGQGTTLTVSS
VL: DIVLTQSPASLAVSLGQRATISCRASESVEYYVTSLMQWYQQKPGQPPKLLIYAASNVESGVPARFSGSGSGTDFSLNIHPVEEDDIAMYFCQQSREVPYTFGGGTKLEIK
B8: B47 (antibody, V domains shown)
VH: EVQLQQSGPELVKPGASVKISCKASDYSFTGYYMNWVKQSPEKSLEWIGEINPSTGGTTYNQKFKAKATLTVDKSSSTAYMQLKSLTSEDSAVYYCARGSGAYWGQGTLVTVSA
VL: B7 VL with V33G, E97K
B9: B08 (antibody, V domains shown)
VH: B8 VH with D26G, S100G, G101A, A102D, Y103V, Q106T, L109T, A114S
VL: B7 VL with V33G, E97K, Y100W
B10: B03 (antibody, V domains shown)
VH: B8 VH with D26G, T58A, Y80S, G99A, S100A, A102D, L109T, V110L, A114S
VL: B7 VL with V33G, E97K, Y100W
B11: B32 (antibody, V domains shown)
VH: QVQLQQSGPELVKPGASVKISCKASGYAFSSSWMNWVKQRPGKGLEWIGRIYPGDGDTNYNGKFKGKATLTADKSSSTAYMQLSSLTSEDSAVYFCARELDPPWGQGTTLTVSS
VL: DILMTQSPSSMSVSLGDTVSITCHASQGISSNIGWLQQKPGKSFKGLIYHGTNLEDGVPSRFCGSGSGADYSLTISSLESEDFADYYCVQYAQFPFTFGSGTKLEIK
B12: B22 (antibody, V domains shown)
VH: EVKLEESGGGLVQPGGSMKLSCAASGFTFSDAWMDWVRQSPEKGLEWVAEIRNKANNHAIYYAESVKGRFTISRDDSKSSVYLQMNSLRAEDTGIYYCILFLTGHFDYWGQGTTLTVSS
VL: DIVMTQSQKFMSTSVGDRVSITCKASQNVRTAVVWYQEKPGQSPKTLIYLASNRHTGVPDRFTGSGSGTDFTLTISNVQSEDLADYFCLQHWNYPLTFGSGTKLEIK
B13: B23 (antibody, V domains shown)
VH: EVKLEESGGGLVQPGGSMKLSCAASGFTFSDAWMDWVRQSPEKGLEWIAEIRNKANNHATYYAESVKGRFTISRDDSKSSVYLQMNSLRAEDTGIYYCTRGLTGPYFDYWGQGTTLTVSS
VL: B12 VL with S20T, V34A, E38Q, T46A, S100A, I106L
B14: B21 (antibody, V domains shown)
VH: B12 VH with I60T, I99T
VL: B12 VL with V34A, E38Q, T46A
B15: B43 (antibody, V domains shown)
VH: DVQLQESGPGLVKPSQSLSLTCSVTGYSITSGYYWNWIRQSPGNKLEWMGYISYDGSNKYNPSLKNRISITRDTSKNQFFLKLNSVTTEDTAIYYCARWDKGAMDYWGQGTSVTVSS
VL: B12 VL with V34A, E38Q, T46A, S65G, S100A, I106L
B16: A11 (antibody, V domains shown)
VH: QVQLQQPGAELVKPGTSVKLSCKASGYTFTSYWMHWVKQRPGQGLEWIGMIHPNSGNTNYNEKFKSKATLTVDKSSSTAYMQLSSLTSEDSAVYYCADLGAWFAYWGQGTLVTVSA
VL: QIVLTQSPAIMSASPGEKVTMTCSASSSISYMHWYQQKPGTSPKRWIYDTSKLASGVPARFSGSGSGTSYSLTISSMEAEDAATYYCHQRSSYPWTFGGGTKLEIK
B17: B07 (antibody, V domains shown)
VH: QVQLQQSGPELVKPGASVKISCKASGYVFSSSWMNWVKQRPGKGLEWIGRIYPGDGETNYNGKFKGKATLTADKSSSTAYMQLSSLTSEDSAVYFCARFDYGYDGHVWGTGTTVTVSS
VL: DIVMTQSQKFMSTSVGDRVSVTCKASQNVGTNVAWYQQKPGQSPKALIYSASYLYSGVPDRFTGSGSGTDFTLTISNVQSEDLAEYFCQQYNSYPLLTFGAGTKLELK
B18: B26 (antibody, V domains shown)
VH: QVQLQQPGAELVKPGASVKMSCKASGYTFTSYWITWVKQRPGQGLEWIGDIYPGSGSTNYNEKFKSKATLTVDTSSSTAYMQLSSLTSEDSAVYYCARDWDYGSSYWYFDVWGTGTTVTVSS
VL: DIKMTQSPSSMYASLGERVTITCKASQDIKSYLSWYQQKPWKSPKTLIYYATSLADGVPSRFSGSGSGQDYSLTISSLASDDTATYYCLQHGESPYTFGGGTKLEIK
B19: B44 (antibody, V domains shown)
VH: QVQLQQPGAELVKPGASVKVSCKASGYTFTSYWMHWVKQRPGQGLEWIGRIHPSDSDTNYNQKFKGKATFTVDKSSSTAYMQLSSLTSEDSAVYYCAIGDGRDFDYWGQGTTLTVSS
VL: DVVLTQTPLSLPVNIGDQASISCKSTKSLLNSDGFTYLDWYLQKPGQSPQLLIYLVSNRFSGVPDRFSGSGSGTDFTLKISRVEAEDLGVYYCFQSNYLPLTFGSGTKLEIK
B20: B01 (antibody, V domains shown)
VH: B19 VH with V18M, F70L, D100G
VL: B19 VL with V56F, L101W, S105G
B21: A49 (antibody, V domains shown)
VH: QVQLQQSGSELARPGASVNLSCKASGYTFTSYGVSWVKQRTGQGLEWIGDIYPRSGNSYYNEKFKGKATLTADKSSSTAYMELRSLTSEDSAVYFCAREVYGYEFDYWGQGTTLTVSS
VL: DIQMTQTTSSLSASLGDRVTISCRASQDISNYLNWYQQKPDGTVQLLIYYTSRLHSGVPSRFSGSGSGTDYSLTISNLEQEDIATYFCQQGNTLPRTFGGGTKLEIK
B22: B45 (antibody)
chain 1: QVQLQQPGAELVKPGASVKVSCKASGYTFTSYWMHWVKQRPGQGLEWIGRIHPSDSDTNYNQKFKGKATLTVDKSSSTAYMQLCSLTSEDCAVYYCAIWEDYGVFYAMDYWGQGTSVTVSS
chain 2: DIVMTQSQKFMSTSVGDRVSVTCKASQNVGTNVAWYQQKPGQSPKALIYSASYRYSGVPDRFTGSGSGTDFTLTISNVQSEDLAEYFCQQYNSYPLTFGAGAKLELK
B23: A24 (antibody, V domains shown)
VH: DVQLQESGPGLVKPSQSLSLTCSVTGYSITSGYYWNWIRQFPGNKMEWMGYITYDGRNTYNPSPKNRLSITRDTSKNQFFLKLNSVTTEDTATYYCARCHYYGSSYAMDYWGQGTSVTVSS
VL: DIVMTQSHKFMSTSVGDRVSITCKASQDVSTAVAWYRQKPGQSPKLLIYWASTRHTGVPDRFTGSGSGTDYTLTISSVQPEDLALYYCQQHYTTPLTFGAGTKLELK

This is an account of results in publication PMC9876794 (2022).

Numbering of substitutions follows the chain as printed.

The assay has as its target SARS-CoV-2 spike RBD (WT) (Severe acute respiratory syndrome …, UniProt P0DTC2). As to the kind of experiment: BLI. For orientation: In BLI a coated tip is dipped into the sample, and binding shifts an interference pattern.
Broadly, the Kd is the concentration at which binding is half-saturated. Lower therefore signals a tighter complex. B1: the affinity, expressed as Kd, was 140 nM.
The figure for B2 is 580 nM; for B3 it is 91.8 nM; for B4 it is 68.5 nM.
The figure for B5 is 100 nM.
The figure for B6 is 138 nM.
B7 registered a Kd of 72.7 nM.
The result for B8 reads 26.5 nM.
The result for B9 reads 87.2 nM; that for B10, 52.6 nM.
For the molecule B11, binding was characterised by a dissociation constant (Kd) of 95.8 nM.
As for B12, binding was characterised by a dissociation constant (Kd) of 269 nM. Against the preceding molecule, the Kd is about 2.8-fold higher.
B13 registered a Kd of 211 nM.
With B14, the dissociation constant (Kd) was 17.2 nM.
The figure for B15 is 40.7 nM; for B16 it is 7620 nM; for B17 it is 17700 nM.
B18 registered a Kd of 104 nM.
The result for B19 reads 123 nM; that for B20, 18.7 nM.
The result for B21 reads 482 nM; that for B22, 837 nM; that for B23, 205 nM.
